Test results as given in the supplement of paper PMC10567573.

B1: RSPH3 (parent)
chain: QRLEEQERRHREEKERRKKQQWEI

Variants of: B1
Test: protein stability index of a GFP-peptide fusion (GPS, HEK-293T) (PSI 1-6); higher = more stable
Conditions: c terminus: a fixed tail appended
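Note: lentivirally expressed fusions sorted by FACS into six bins by GFP to DsRed ratio, PSI derived from sequencing read proportions per bin multiplied by bin number.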

Q: Which protein stability index does the source give for QRLEEQERRHREEKERRKKQQWQI [E23Q] here?
A: The protein stability index was 3.95.

Q: For QRLEEQERRHREEKERRKKQQWTI [E23T], which protein stability index is on record?
A: The protein stability index was 3.96.

Q: For QRLEEQERRHREEKERRKKQQWHI [E23H], which protein stability index is on record?
A: Its protein stability index is 4.39.

Q: Which protein stability index does the source give for QRLEEQERRHREEKERRKKQQWGI [E23G] here?
A: Its protein stability index is 4.46.

Q: Which protein stability index does the source give for QRLEEQERRHREEKERRKKQQWDI [E23D] here?
A: The protein stability index was 4.91.

Q: For QRLEEQERRHREEKERRKKQQWCI [E23C], which protein stability index is on record?
A: The protein stability index was 4.03.

Q: Which protein stability index does the source give for QRLEEQERRHREEKEFRKKQQWEI [R16F] here?
A: The protein stability index was 4.06.

Q: For QRLEEQERRHREEKEWRKKQQWEI [R16W], which protein stability index is on record?
A: The protein stability index was 4.02.

Q: With QRLEEQERRHREEKEGRKKQQWEI [R16G] as the variant, how does the protein stability index read?
A: The protein stability index was 4.84.

Q: For QRLEEQERRHREEKECRKKQQWEI [R16C], which protein stability index is on record?
A: Its protein stability index is 5.12.

Q: With QRLEEQERRHREEKEPRKKQQWEI [R16P] as the variant, how does the protein stability index read?
A: Its protein stability index is 4.97.

Q: For QRLEEQERRHREEKEVRKKQQWEI [R16V], which protein stability index is on record?
A: The protein stability index was 5.18.

Q: Which protein stability index does the source give for QRLEEQERRHREEKESRKKQQWEI [R16S] here?
A: The protein stability index was 4.9.

Q: For QRLEEQERRHREEKERRKKLQWEI [Q20L], which protein stability index is on record?
A: The protein stability index was 4.35.

Q: For QRLEEQERRHREEKERRKKWQWEI [Q20W], which protein stability index is on record?
A: The protein stability index was 4.36.

Q: Which protein stability index does the source give for QRLEEQERRHREEKERRKKCQWEI [Q20C] here?
A: Its protein stability index is 4.77.

Q: For QRLEEQERRHREEKERRKKDQWEI [Q20D], which protein stability index is on record?
A: The protein stability index was 4.94.

Q: Which protein stability index does the source give for QRLEEQERRHREEKERRKKFQWEI [Q20F] here?
A: Its protein stability index is 4.19.

Q: For QRLEEQERRHREEKERRKKIQWEI [Q20I], which protein stability index is on record?
A: The protein stability index was 4.6.

Q: With QRLEEQERRHREEKERRKKKQWEI [Q20K] as the variant, how does the protein stability index read?
A: Its protein stability index is 4.22.

Q: For QRLEEQERRHREEKERRKKMQWEI [Q20M], which protein stability index is on record?
A: The protein stability index was 3.86.

Q: Which protein stability index does the source give for QRLEEQERRHREEKERRGKQQWEI [K18G] here?
A: Its protein stability index is 4.71.

Q: With QRLEEQERRHREEKERRHKQQWEI [K18H] as the variant, how does the protein stability index read?
A: Its protein stability index is 4.56.

Q: For QRLEEQERRHREEKERRVKQQWEI [K18V], which protein stability index is on record?
A: Its protein stability index is 4.18.

Q: For QRLEEQERRHREEKERRDKQQWEI [K18D], which protein stability index is on record?
A: The protein stability index was 4.59.

Q: With QRLEEQERRHREEKERRWKQQWEI [K18W] as the variant, how does the protein stability index read?
A: The protein stability index was 4.03.

Q: With QRLEEQERRHREEKERRKKQQWEN [I24N] as the variant, how does the protein stability index read?
A: Its protein stability index is 4.68.

Q: For QRLEEQERRHREEKERRKKQQWEK [I24K], which protein stability index is on record?
A: The protein stability index was 4.25.

Q: With QRLEEQERRHREEKERRKKQQWEM [I24M] as the variant, how does the protein stability index read?
A: The protein stability index was 4.56.

Q: For QRLEEQERRHREEKERRKKQQWEP [I24P], which protein stability index is on record?
A: Its protein stability index is 5.

Q: Which protein stability index does the source give for QRLEEQERRHREEKERRKKQQWEA [I24A] here?
A: The protein stability index was 5.

Q: For QRLEEQERRHREEKERRKKQQWED [I24D], which protein stability index is on record?
A: The protein stability index was 5.

Q: For QRLEEQERRHREEKERRKKQQWES [I24S], which protein stability index is on record?
A: Its protein stability index is 4.76.

Q: Which protein stability index does the source give for QRLEEQERRHREEKERRKKQQWEV [I24V] here?
A: Its protein stability index is 5.01.

Q: For QRLEEQERRHREEKERRKKQQWET [I24T], which protein stability index is on record?
A: Its protein stability index is 4.3.

Q: For QRLEEQERRHREEKERRKKQQWEY [I24Y], which protein stability index is on record?
A: Its protein stability index is 4.82.

Q: With QRLEEQERRHREEKERRKKQQWEF [I24F] as the variant, how does the protein stability index read?
A: Its protein stability index is 4.34.

Q: With QRLEEKERRHREEKERRKKQQWEI [Q6K] as the variant, how does the protein stability index read?
A: The protein stability index was 4.19.

Q: For QRLEESERRHREEKERRKKQQWEI [Q6S], which protein stability index is on record?
A: The protein stability index was 4.82.

Q: With QRLEEYERRHREEKERRKKQQWEI [Q6Y] as the variant, how does the protein stability index read?
A: Its protein stability index is 4.48.

Q: With QRLEETERRHREEKERRKKQQWEI [Q6T] as the variant, how does the protein stability index read?
A: Its protein stability index is 4.81.

Q: With QRLEEHERRHREEKERRKKQQWEI [Q6H] as the variant, how does the protein stability index read?
A: Its protein stability index is 4.39.

Q: Which protein stability index does the source give for QRLEENERRHREEKERRKKQQWEI [Q6N] here?
A: Its protein stability index is 4.4.

Q: Which protein stability index does the source give for QRLEEPERRHREEKERRKKQQWEI [Q6P] here?
A: Its protein stability index is 4.47.

Q: For QRLEERERRHREEKERRKKQQWEI [Q6R], which protein stability index is on record?
A: Its protein stability index is 4.42.

Q: For QRNEEQERRHREEKERRKKQQWEI [L3N], which protein stability index is on record?
A: Its protein stability index is 4.59.

Q: For QRMEEQERRHREEKERRKKQQWEI [L3M], which protein stability index is on record?
A: Its protein stability index is 4.81.

Q: For QRDEEQERRHREEKERRKKQQWEI [L3D], which protein stability index is on record?
A: Its protein stability index is 4.82.

Q: For QRPEEQERRHREEKERRKKQQWEI [L3P], which protein stability index is on record?
A: The protein stability index was 5.

Q: Which protein stability index does the source give for QRGEEQERRHREEKERRKKQQWEI [L3G] here?
A: Its protein stability index is 4.75.

Q: For QRTEEQERRHREEKERRKKQQWEI [L3T], which protein stability index is on record?
A: Its protein stability index is 4.99.

Q: With QRWEEQERRHREEKERRKKQQWEI [L3W] as the variant, how does the protein stability index read?
A: Its protein stability index is 4.06.

Q: With QRFEEQERRHREEKERRKKQQWEI [L3F] as the variant, how does the protein stability index read?
A: Its protein stability index is 4.2.

Q: Which protein stability index does the source give for QRHEEQERRHREEKERRKKQQWEI [L3H] here?
A: Its protein stability index is 4.54.

Q: For QRQEEQERRHREEKERRKKQQWEI [L3Q], which protein stability index is on record?
A: Its protein stability index is 4.72.

Q: With QRREEQERRHREEKERRKKQQWEI [L3R] as the variant, how does the protein stability index read?
A: Its protein stability index is 5.08.

Q: With QRLEEQERRHREIKERRKKQQWEI [E13I] as the variant, how does the protein stability index read?
A: Its protein stability index is 3.88.

Q: For QRLEEQERRHRESKERRKKQQWEI [E13S], which protein stability index is on record?
A: Its protein stability index is 4.02.

Q: With QRLEEQERRHRETKERRKKQQWEI [E13T] as the variant, how does the protein stability index read?
A: The protein stability index was 4.32.

Q: With QRLEEQERRHRERKERRKKQQWEI [E13R] as the variant, how does the protein stability index read?
A: Its protein stability index is 4.47.

Q: With QRLEEQERRHREDKERRKKQQWEI [E13D] as the variant, how does the protein stability index read?
A: The protein stability index was 4.74.

Q: Which protein stability index does the source give for QRLEEQERRHREEKERRKDQQWEI [K19D] here?
A: The protein stability index was 4.98.

Q: Which protein stability index does the source give for QRLEEQERRHREEKERRKQQQWEI [K19Q] here?
A: Its protein stability index is 4.64.

Q: With QRLEEQERRHREEKERRKPQQWEI [K19P] as the variant, how does the protein stability index read?
A: Its protein stability index is 4.62.

Q: For QRLEEQERRHREEKERRKHQQWEI [K19H], which protein stability index is on record?
A: The protein stability index was 4.36.

Q: Which protein stability index does the source give for QRLEEQERRHREEKERRKTQQWEI [K19T] here?
A: Its protein stability index is 4.87.

Q: For QRLEEQERRHREEKERRKIQQWEI [K19I], which protein stability index is on record?
A: Its protein stability index is 4.08.

Q: Which protein stability index does the source give for QRLEEQERRHREEKERRKSQQWEI [K19S] here?
A: Its protein stability index is 4.77.

Q: For GRLEEQERRHREEKERRKKQQWEI [Q1G], which protein stability index is on record?
A: Its protein stability index is 4.83.

Q: With YRLEEQERRHREEKERRKKQQWEI [Q1Y] as the variant, how does the protein stability index read?
A: The protein stability index was 4.42.

Q: For RRLEEQERRHREEKERRKKQQWEI [Q1R], which protein stability index is on record?
A: Its protein stability index is 4.49.

Q: Which protein stability index does the source give for TRLEEQERRHREEKERRKKQQWEI [Q1T] here?
A: Its protein stability index is 4.78.

Q: Which protein stability index does the source give for HRLEEQERRHREEKERRKKQQWEI [Q1H] here?
A: Its protein stability index is 5.33.

Q: With QRLEEQERQHREEKERRKKQQWEI [R9Q] as the variant, how does the protein stability index read?
A: Its protein stability index is 4.63.

Q: Which protein stability index does the source give for QRLEEQERKHREEKERRKKQQWEI [R9K] here?
A: The protein stability index was 4.21.

Q: With QRLEEQEREHREEKERRKKQQWEI [R9E] as the variant, how does the protein stability index read?
A: The protein stability index was 4.49.

Q: Which protein stability index does the source give for QRLEEQERIHREEKERRKKQQWEI [R9I] here?
A: The protein stability index was 4.4.

Q: Which protein stability index does the source give for QRLEEQERNHREEKERRKKQQWEI [R9N] here?
A: The protein stability index was 4.56.

Q: Which protein stability index does the source give for QRLEEQERAHREEKERRKKQQWEI [R9A] here?
A: The protein stability index was 5.32.

Q: For QRLEEQERSHREEKERRKKQQWEI [R9S], which protein stability index is on record?
A: Its protein stability index is 3.85.

Q: With QRLEEQERYHREEKERRKKQQWEI [R9Y] as the variant, how does the protein stability index read?
A: The protein stability index was 4.66.

Q: For QRLEEQERLHREEKERRKKQQWEI [R9L], which protein stability index is on record?
A: The protein stability index was 4.81.

Q: For QRLEEQERRHREEKERFKKQQWEI [R17F], which protein stability index is on record?
A: Its protein stability index is 4.41.

Q: With QRLEEQERRHREEKERNKKQQWEI [R17N] as the variant, how does the protein stability index read?
A: Its protein stability index is 4.76.

Q: For QRLEEQERRHREEKERMKKQQWEI [R17M], which protein stability index is on record?
A: Its protein stability index is 4.77.

Q: Which protein stability index does the source give for QRLEEQERRHREEKERGKKQQWEI [R17G] here?
A: Its protein stability index is 4.83.

Q: Which protein stability index does the source give for QRLEEQERRHREEKERPKKQQWEI [R17P] here?
A: The protein stability index was 4.31.

Q: With QRLEEQERRHREEKERVKKQQWEI [R17V] as the variant, how does the protein stability index read?
A: The protein stability index was 4.56.

Q: For QRLEEQERRHREEKERWKKQQWEI [R17W], which protein stability index is on record?
A: Its protein stability index is 4.02.

Q: Which protein stability index does the source give for QRLEEQRRRHREEKERRKKQQWEI [E7R] here?
A: The protein stability index was 4.26.

Q: For QRLEEQHRRHREEKERRKKQQWEI [E7H], which protein stability index is on record?
A: The protein stability index was 4.28.

Q: With QRLEEQIRRHREEKERRKKQQWEI [E7I] as the variant, how does the protein stability index read?
A: The protein stability index was 3.86.

Q: With QRLEEQSRRHREEKERRKKQQWEI [E7S] as the variant, how does the protein stability index read?
A: The protein stability index was 3.88.

Q: For QRLEEQTRRHREEKERRKKQQWEI [E7T], which protein stability index is on record?
A: Its protein stability index is 4.95.
